Assay results published in patent US20240287172A1 (SCIRHOM, published 2024).

Molecular target: T1, hiR2-FL-E617D-T7 (human, UniProt Q6PJF5 1-856)
T1 sequence: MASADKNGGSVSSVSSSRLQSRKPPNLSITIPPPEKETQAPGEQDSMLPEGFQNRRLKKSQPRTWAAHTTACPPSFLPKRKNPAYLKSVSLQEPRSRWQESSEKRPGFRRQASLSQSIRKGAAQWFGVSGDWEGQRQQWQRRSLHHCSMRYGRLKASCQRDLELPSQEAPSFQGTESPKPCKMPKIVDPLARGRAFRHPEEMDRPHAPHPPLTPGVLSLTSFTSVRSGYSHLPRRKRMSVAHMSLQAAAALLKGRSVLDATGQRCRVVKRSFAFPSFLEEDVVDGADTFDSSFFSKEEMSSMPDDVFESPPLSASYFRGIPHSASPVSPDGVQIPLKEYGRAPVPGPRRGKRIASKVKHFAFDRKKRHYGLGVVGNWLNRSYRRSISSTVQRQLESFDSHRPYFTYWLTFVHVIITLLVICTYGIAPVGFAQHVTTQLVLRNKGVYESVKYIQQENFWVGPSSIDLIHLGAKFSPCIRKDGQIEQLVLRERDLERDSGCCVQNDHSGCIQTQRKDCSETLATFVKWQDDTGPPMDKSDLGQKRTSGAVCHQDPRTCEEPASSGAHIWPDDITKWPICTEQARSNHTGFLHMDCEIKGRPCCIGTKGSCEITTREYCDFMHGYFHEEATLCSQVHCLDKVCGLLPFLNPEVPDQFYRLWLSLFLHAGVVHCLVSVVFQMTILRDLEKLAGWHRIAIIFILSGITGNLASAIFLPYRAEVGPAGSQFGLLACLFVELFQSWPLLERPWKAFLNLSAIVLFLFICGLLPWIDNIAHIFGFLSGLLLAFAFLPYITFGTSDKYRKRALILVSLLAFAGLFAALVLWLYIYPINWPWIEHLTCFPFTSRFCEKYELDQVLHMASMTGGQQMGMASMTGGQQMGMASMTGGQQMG
Experiment: FACS, MEF-DKO cells, 3 µg/ml
Method in brief: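 MEF-DKO cells expressing T7-tagged full-length hiR2 point mutants were stained on ice for 1 h with purified antibodies at 3 μg/ml in FACS buffer. Detection used PE-conjugated goat anti-mouse IgG F(ab′)2 (1:100, 1 h on ice), read by flow cytometry; buffer-only wells served as controls.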

B1: antibody 48 (antibody, V domains shown)
VH: QVQLQQSGTELVRPGTSVKVSCKASGYAFTNYLIEWVKQRPGQGLEWIGVINPGSGFTKYNEKFKGKATLTADKSSSTVYMHLSSLTSEDSAVYFCARGLYRAMDYWGQGTSVTVSS
VL: DIQMTQSPASQSASLGESVTITCLASQTIATWLAWYQQKPGKSPQLLIYGATTLADGVPSRFSGGGSGTKFSFKISSLQAEDFVSYYCQQLYSTPYTFGGGTKLEIK
notes: mouse IgG, kappa light chain; also called clone #48; purified antibody 48
loss of binding vs wild type: ≥ 30%

B2: antibody 50 (antibody, V domains shown)
VH: QVQLQQSGAELVRPGASVKVSCKASGYAFSNYLIEWVKQRPGQGLEWIGVINPGSGFTKYNEKFKGKATLTADKSSSTAYMQLSSLTSEDSAVYFCARGLYRAMDYWGQGTSVTVSS
VL: DIQMTQSPASQSASLGESVTITCLASQTIGTWLAWYQQKPGKSPQLLIYAAASLADGVPSRFSGGGSGTKFSFKISSLQAEDFVNYYCQQIYSTPYTFGGGTKLEIK
notes: mouse IgG, kappa light chain; also called clone #50; purified antibody 50
loss of binding vs wild type: ≥ 30%
